The test has as its target T1, S-TNF, human TNFα fusion protein with an N-terminal S-Tag (human, UniProt P01375 77-233).
T1 construct: Made, expressed and purified by the applicants; not shown: 15 amino acid S-Tag peptide (Novagen)
Nature of the test: indirect ELISA: sp55 from conditioned medium captured on Ni-NTA wells, S-TNF at 1 μg/mL, S-protein-HRP detection, absorbance at 370 nm.

T1 sequence (P01375 77-233): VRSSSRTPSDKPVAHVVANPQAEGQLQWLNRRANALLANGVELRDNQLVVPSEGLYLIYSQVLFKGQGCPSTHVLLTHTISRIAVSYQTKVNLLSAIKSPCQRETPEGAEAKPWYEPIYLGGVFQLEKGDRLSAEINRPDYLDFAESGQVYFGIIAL

B1: sp55, soluble TNF receptor p55: ecto-domain of human TNFR-1 (residues 30-211) with C-terminal myc and His6 tags (receptor)
chain: DAAQPARRAVRSLVPHLGDREKRDSVCPQGKYIHPQNNSICCTKCHKGTYLYNDCPGPGQDTDCRECESGSFTASENHLRHCLSCSKCRKEMGQVEISSCTVDRDTVCGCRKNQYRHYWSENLFQCFNCSLCLNGTVHLSCQEKQNTVCTCHAGFFLRENECVSCSNCKKSLECTKLCLPQIENVKGTEDSGTTRGGPEQKLISEEDLNSAVDHHHHHH
notes: Used as conditioned medium of transfected 293T cells; also called p55FL-myc-his; p55L
With B1, the “fold elevation in S-TNF binding over non-specific binding in control samples” value came to 3 fold.

The values are drawn from patent publication WO2007030708A2 (dated 2007).
